Where “and” joins values, the source holds several entries; their conditions need not be identical. Equal entries are not always repeated.
B1: s4-1BBL (ligand)
chain: GSGSNWSHPQFEKGGSGGHHHHHHGGSGGGSLDLRQGMFAQLVAQNVLLIDGPLSWYSDPGLAGVSLTGGLSYKEDTKELVVAKAGVYYVFFQLELRRVVAGEGSGSVSLALHLQPLRSAAGAAALALTVDLPPASSEARNSAFGFQGRLLHLSAGQRLGVHLHTEARARHAWQLTQGATVLGLFRVTPEIPAGLPSPRSE
notes: HEK293T supernatant; also called soluble 4-1BBL
B2: s4-1BBL-TriXVIII^LL (ligand)
chain: GSGSNWSHPQFEKGGSGGHHHHHHGGSGGTRSGAGGSGGSSGSDGASGSGVRLWATRQAMLGQVHEVPEGWLIFVAEQEELYVRVQNGFRKVQLEARTPLPRGTDNEGSLDLRQGMFAQLVAQNVLLIDGPLSWYSDPGLAGVSLTGGLSYKEDTKELVVAKAGVYYVFFQLELRRVVAGEGSGSVSLALHLQPLRSAAGAAALALTVDLPPASSEARNSAFGFQGRLLHLSAGQRLGVHLHTEARARHAWQLTQGATVLGLFRVTPEIPAGLPSPRSE
B3: s4-1BBL-TriXVIII (ligand)
chain: GSGSNWSHPQFEKGGSGGHHHHHHGGSGGGVRLWATRQAMLGQVHEVPEGWLIFVAEQEELYVRVQNGFRKVQLEARTPLPRGTDNEGSLDLRQGMFAQLVAQNVLLIDGPLSWYSDPGLAGVSLTGGLSYKEDTKELVVAKAGVYYVFFQLELRRVVAGEGSGSVSLALHLQPLRSAAGAAALALTVDLPPASSEARNSAFGFQGRLLHLSAGQRLGVHLHTEARARHAWQLTQGATVLGLFRVTPEIPAGLPSPRSE
notes: HEK293T supernatant; The entry may include the CD5 leader; also called 54-1BBL-TriXVIII; human s4-1BBL-TriXVIII
B4: s4-1BBLsh-TriXVIII (ligand)
chain: GSGSNWSHPQFEKGGSGGHHHHHHGGSGGGVRLWATRQAMLGQVHEVPEGWLIFVAEQEELYVRVQNGFRKVQLEARTPLPRGTDNEGSGMFAQLVAQNVLLIDGPLSWYSDPGLAGVSLTGGLSYKEDTKELVVAKAGVYYVFFQLELRRVVAGEGSGSVSLALHLQPLRSAAGAAALALTVDLPPASSEARNSAFGFQGRLLHLSAGQRLGVHLHTEARARHAWQLTQGATVLGLFRVTP
notes: HEK293T supernatant, used without purification; The entry may include the CD5 leader; also called 54-1BBLsh-TriXVIII; s4-1BBL-short (sh) minimal polypeptide
B5: s4-1BBL-TNC (ligand)
chain: GSGSNWSHPQFEKGGSGGHHHHHHGGSGGTRACGCAAAPDIKDLLSRLEELEGLVSSLREQGSLDLRQGMFAQLVAQNVLLIDGPLSWYSDPGLAGVSLTGGLSYKEDTKELVVAKAGVYYVFFQLELRRVVAGEGSGSVSLALHLQPLRSAAGAAALALTVDLPPASSEARNSAFGFQGRLLHLSAGQRLGVHLHTEARARHAWQLTQGATVLGLFRVTPEIPAGLPSPRSE
notes: HEK293T supernatant; The entry may include the CD5 leader; also called comparison 3
B6: murine (m)s4-1BBL-TriXVIII (ligand)
chain: GVRLWATRQAMLGQVHEVPEGWLIFVAEQEELYVRVQNGFRKVQLEARTPLPRGTDNEGSRTEPRPALTITTSPNLGTRENNADQVTPVSHIGCPNTTQQGSPVFAKLLAKNQASLCNTTLNWHSQDGAGSSYLSQGLRYEEDKKELVVDSPGLYYVFLELKLSPTFTNTGHKVQGWVSLVLQAKPQVDDFDNLALTVELFPCSMENKLVDRSWSQLLLLKAGHRLSVGLRAYLHGAQDAYRDWELSYPNTTSFGLFLVKPDNPWE
B7: Triple-s4-1BBL (ligand)
chain: GSGSNWSHPQFEKGGSGGHHHHHHGGSGGGSLDLRQGMFAQLVAQNVLLIDGPLSWYSDPGLAGVSLTGGLSYKEDTKELVVAKAGVYYVFFQLELRRVVAGEGSGSVSLALHLQPLRSAAGAAALALTVDLPPASSEARNSAFGFQGRLLHLSAGQRLGVHLHTEARARHAWQLTQGATVLGLFRVTPEIPAGLPSPRSEGGGGSGGGGSGGGGSLDLRQGMFAQLVAQNVLLIDGPLSWYSDPGLAGVSLTGGLSYKEDTKELVVAKAGVYYVFFQLELRRVVAGEGSGSVSLALHLQPLRSAAGAAALALTVDLPPASSEARNSAFGFQGRLLHLSAGQRLGVHLHTEARARHAWQLTQGATVLGLFRVTPEIPAGLPSPRSEGGGGSGGGGSGGGGSLDLRQGMFAQLVAQNVLLIDGPLSWYSDPGLAGVSLTGGLSYKEDTKELVVAKAGVYYVFFQLELRRVVAGEGSGSVSLALHLQPLRSAAGAAALALTVDLPPASSEARNSAFGFQGRLLHLSAGQRLGVHLHTEARARHAWQLTQGATVLGLFRVTPEIPAGLPSPRSE
notes: HEK293T supernatant; Single chain carrying three ectodomains; The entry may include the leader

Columns and labels:
[1] = molecular target: T1, human 4-1BB (human, UniProt Q07011 24-255); experiment: cell-based or functional assay
[2] = molecular target: T1, human 4-1BB; experiment: flow cytometry; dilution series of HEK293T supernatant on Jurkat TPR cells expressing human 4-1BB
Text: For testing the resulting supernatants, a Triple parameter reporter cell line (TPR) based on the human Jurkat JE6-1 T cell line was used (Jutz et al., 2016). This cell line harbors fluorescent reporter polypeptides to concomitantly assess the activity of three transcription factors, which play major roles during T cell activation: NF-κB::eCFP; NFAT::eGFP and AP-1::mCherry. The TPR reporter cells were transduced to stably express human 4-1BB. For the binding assays, 1×10⁵ 4-1 BB expressing cells in a volume of 10 μl were incubated with 50 μl of the supernatants containing the products according to Table 1. […] After an incubation time of 30 min at 4° C., the samples are washed in FACS-Buffer (1×PBS, 0.5% FCS, 0.005% NaN₃) and stained with a biotinylated Strep-tag II mAb (GenScript, NJ) via adding 5 μl of a 1:150 dilution to each sample and incubation for 20 min on 4° C. Afterwards, samples were washed again and incubated for another 20 min on 4° C. upon adding 5 μl of a 1:200 dilution of Streptavidin-PE (BD Pharmingen, San Diego, CA) to each sample. At last, samples were washed again and subsequently measured via flow cytometry, which was performed on a FACSCalibur flow cytometer (Becton Dickinson Immunocytometry System, San Jose, CA), using the CellQuest software. Data was analyzed with FlowJo (version 10.0.7, Tree Star, Ashland, OR) and Graphpad Prism (version 6, GraphPad Software, Inc., La Jolla, CA).

[3] = molecular target: murine 4-1BB (murine, UniProt P20334 24-256); experiment: cell-based or functional assay
Sequence of murine 4-1BB (P20334 24-256): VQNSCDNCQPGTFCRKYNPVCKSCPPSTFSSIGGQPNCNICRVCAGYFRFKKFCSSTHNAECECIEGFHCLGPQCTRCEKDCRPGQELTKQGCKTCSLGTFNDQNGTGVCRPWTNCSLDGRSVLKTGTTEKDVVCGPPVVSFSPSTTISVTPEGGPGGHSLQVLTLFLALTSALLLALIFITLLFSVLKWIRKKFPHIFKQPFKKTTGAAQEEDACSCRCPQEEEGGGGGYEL

T1 sequence (Q07011 24-255): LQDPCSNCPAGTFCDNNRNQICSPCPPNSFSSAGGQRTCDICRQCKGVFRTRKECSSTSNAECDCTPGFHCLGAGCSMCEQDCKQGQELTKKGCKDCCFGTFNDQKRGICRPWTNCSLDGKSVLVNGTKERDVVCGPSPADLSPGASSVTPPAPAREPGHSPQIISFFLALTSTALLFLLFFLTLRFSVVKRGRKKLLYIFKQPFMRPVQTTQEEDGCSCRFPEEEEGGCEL

Binder | NF-κB activation measured through eCFP expression (fold induction) [1] | supernatant dilution at which binding is still detectable [2] | NF-κB activation measured through eCFP expression (fold induction) [3]
B1 | 8 final supernatant dilution (1:x) | 1600 supernatant dilution (1:x) | –
B2 | 64 final supernatant dilution (1:x) and 8 supernatant dilution (1:x) | – | –
B3 | – | 4096 supernatant dilution (1:x) | –
B4 | – | 2080 supernatant dilution (1:x) | –
B5 | ~50 % of effect lost at a dilution of 1:8 | 128 supernatant dilution (1:x) | –
B6 | – | – | 15600 final supernatant dilution (1:x) and 500 supernatant dilution (1/x)
B7 | – | 4096 supernatant dilution (1:x) | –
